Assay [1] deals with human angiotensin-converting enzyme 1 (hACE1) (human) (UniProt P12821). Briefly: enzyme inhibition assay.
Assay [2] has as its target extracellular catalytic domain of human angiotensin-converting enzyme 2 (hACE2), produced in mammalian cells (human) (UniProt Q9BYF1). Put plainly: enzyme inhibition assay.

pIC50, pKi: −log10 of the molar value. A value given as a limit tells only on which side of the number the result lay.

human angiotensin-converting enzyme 1 (hACE1) (human), sequence (P12821 30-1256): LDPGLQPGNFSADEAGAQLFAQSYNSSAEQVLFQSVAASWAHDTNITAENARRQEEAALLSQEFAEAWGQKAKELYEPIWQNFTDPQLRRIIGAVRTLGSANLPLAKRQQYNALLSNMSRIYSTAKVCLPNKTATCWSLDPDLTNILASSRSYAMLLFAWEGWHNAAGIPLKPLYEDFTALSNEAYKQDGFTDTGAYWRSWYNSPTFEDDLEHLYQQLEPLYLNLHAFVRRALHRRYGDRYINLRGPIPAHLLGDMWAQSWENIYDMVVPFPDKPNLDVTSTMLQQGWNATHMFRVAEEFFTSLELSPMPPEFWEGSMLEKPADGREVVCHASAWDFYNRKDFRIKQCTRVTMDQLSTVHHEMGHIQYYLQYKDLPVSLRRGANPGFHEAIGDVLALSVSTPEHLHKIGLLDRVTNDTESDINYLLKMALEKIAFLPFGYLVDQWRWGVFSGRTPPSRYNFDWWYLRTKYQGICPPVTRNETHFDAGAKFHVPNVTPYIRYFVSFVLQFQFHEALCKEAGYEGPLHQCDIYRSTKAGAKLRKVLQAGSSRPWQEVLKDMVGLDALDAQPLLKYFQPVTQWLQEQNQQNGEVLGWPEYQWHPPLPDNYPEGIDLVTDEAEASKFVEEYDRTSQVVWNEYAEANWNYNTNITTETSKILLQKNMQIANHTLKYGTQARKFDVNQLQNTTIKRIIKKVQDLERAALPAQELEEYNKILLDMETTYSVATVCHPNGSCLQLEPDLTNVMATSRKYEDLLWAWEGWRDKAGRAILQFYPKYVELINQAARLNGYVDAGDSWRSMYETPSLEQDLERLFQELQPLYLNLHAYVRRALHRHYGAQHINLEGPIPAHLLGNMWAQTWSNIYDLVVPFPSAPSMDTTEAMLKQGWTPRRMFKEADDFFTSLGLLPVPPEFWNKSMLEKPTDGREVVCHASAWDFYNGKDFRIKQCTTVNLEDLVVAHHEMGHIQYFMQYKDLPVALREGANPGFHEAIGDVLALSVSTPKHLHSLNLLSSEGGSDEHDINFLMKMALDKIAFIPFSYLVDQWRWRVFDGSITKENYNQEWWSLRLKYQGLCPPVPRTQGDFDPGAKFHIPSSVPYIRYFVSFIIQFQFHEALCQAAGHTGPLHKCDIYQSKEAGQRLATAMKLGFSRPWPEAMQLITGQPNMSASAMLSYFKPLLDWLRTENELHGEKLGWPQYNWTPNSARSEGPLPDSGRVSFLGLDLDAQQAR
extracellular catalytic domain of human angiotensin-converting enzyme 2 (hACE2), produced in mammalian cells (human), sequence (Q9BYF1 19-615): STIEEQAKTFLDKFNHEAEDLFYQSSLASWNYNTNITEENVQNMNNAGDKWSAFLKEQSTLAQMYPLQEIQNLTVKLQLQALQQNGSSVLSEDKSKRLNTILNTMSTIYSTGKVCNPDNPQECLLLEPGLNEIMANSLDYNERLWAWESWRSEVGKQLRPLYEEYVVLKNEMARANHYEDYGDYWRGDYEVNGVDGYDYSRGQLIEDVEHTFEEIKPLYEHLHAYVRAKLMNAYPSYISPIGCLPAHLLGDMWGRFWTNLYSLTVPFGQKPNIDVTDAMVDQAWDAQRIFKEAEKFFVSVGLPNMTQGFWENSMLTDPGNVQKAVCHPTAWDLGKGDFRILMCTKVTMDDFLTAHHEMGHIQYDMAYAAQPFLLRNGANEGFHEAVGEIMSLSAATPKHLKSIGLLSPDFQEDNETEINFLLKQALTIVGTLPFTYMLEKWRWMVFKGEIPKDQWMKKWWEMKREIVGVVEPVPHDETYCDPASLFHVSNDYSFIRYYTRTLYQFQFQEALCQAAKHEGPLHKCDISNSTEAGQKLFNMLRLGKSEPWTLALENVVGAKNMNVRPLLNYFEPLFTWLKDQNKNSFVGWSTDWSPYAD

As a reminder, the pIC50 is −log10 of the IC50, conventionally taken in molar units. A low value points to a high IC50. One may read the pKi as the negative decadic logarithm of the Ki, by convention in mol/L. Lower therefore signals a large Ki. In the case of “A0773, commercially available inhibitor (peptide)”, the pIC50 was 6.67 in assay [1] and < 4.52 in assay [2]. Besides, the pKi is 7.28 in assay [1] and < 4.52 in assay [2].
